Series [1] deals with T1, TGFβ1 (Homo sapiens, UniProt P01137 P01137:279-390). As to the kind of experiment: filter; not inhibitory in cell assay. The settings on record: tags: Genentech; biotinylated version used in bead assay; chain copies: 2.
Series [2] deals with T1, TGFβ1. As to the kind of experiment: filter; not inhibitory. The settings on record: tags: Genentech; biotinylated version used in bead assay; chain copies: 2.
In series [3] the target is T2, KGF (hKGF) (Homo sapiens, UniProt P21781 P21781:32-194).
T2 sequence: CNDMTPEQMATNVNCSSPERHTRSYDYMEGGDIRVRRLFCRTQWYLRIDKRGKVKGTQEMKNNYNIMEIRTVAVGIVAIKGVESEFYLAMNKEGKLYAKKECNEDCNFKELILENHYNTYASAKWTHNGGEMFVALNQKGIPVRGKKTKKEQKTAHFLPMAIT
The series can be described thus: competition; PC-3 cells. The settings on record: tags: Upstate Biotechnology. The method, then: PC-3 cells were plated in 24-well plates at about 10⁵ cells per well. Following growth for […], the cells were serum starved for 24 hours, washed two times with 500 μl of cold DPBS, and then incubated with 500 μl binding buffer (BB1; DPBS, 0.5 mM MgCl₂, 0.2% BSA. 0.02% sodium azide) containing various concentrations of ¹²⁵I-labeled KGF ranging from 0 to 0.8 nM. Following 3-3.5 hour incubation at 4° C., the binding mixes were aspirated and the well-adhered cells were washed two times with 1 ml BB1 and once with 1 ml BB1 supplemented with 0.5M NaCl. The remaining bound labeled hKGF was solubilized in 600 μl 0.5% SDS/0.1M NaOH and counted in a gamma counter (Beckmann). Nonspecific binding was determined in the presence of 100 fold molar excess of unlabeled hKGF. For competition assays, the labeled hKGF was kept constant at […], and varying concentrations of competitor molecules were included in the binding reactions ranging from 0-1,000 nM. Binding curves were fitted to the equation: […]
A subset of these ligands was tested on the NIH3T3/FGFR-2. In determining the Ki values, it was assumed that 3T3 cells have 500,000 binding sites per cell and PC-3 cells have 5,000 binding sites per cell.

Series [4] deals with T2, KGF (hKGF). The series can be described thus: filter; DPBS, 37 C. The settings on record: tags: Upstate Biotechnology, label: 32P.
Series [5] concerns the target T2, KGF (hKGF). The series can be described thus: filter; high +, low +. The settings on record: tags: Upstate Biotechnology. The method, then: In an effort to identify shorter KGF ligands that retained binding, the binding activity of various deletions of the shortest truncate of ligand 14F, namely 14F3′T were tested. Deletions were tested in all the structural elements of the proposed pseudoknot structure. RNA transcripts containing 2′F pyrimidines and 2′OH purines were obtained by in vitro transcription using synthetic DNA templates. The activity of each ligand is shown by scoring for both the high (H) and low (L) affinity component of the 14F3′T binding curve with +(active) or −(not active). Truncates T35 and T36 represent two complementary halves of 14F3′T molecule and were additionally tested as an equimolar mixture. The structural elements of the proposed pseudoknot structure are separated by (1) and are indicated by symbols S1 (stem 1), S2 (stem 2), L1 (loop 1) and L3 (loop 3). The proposed pseudoknot structure for 14F3′T is a non-H-type pseudoknot and lacks L2 (loop 2). The complementary sequences forming S1 (S1 and S1′) and S2 (S2 and S2′) are marked by single and double underlines respectfully. In the tabulated sequences, deleted bases were replaced with periods (.). […] Deletions in loop 3 (L3), however, were tolerated as long as one copy of the RRYY box remained intact. The shortest ligand that retained activity is T22 which is a 43-mer. In trying to obtain shorter ligands by truncating L3 further a mutant version of T22 (designated T22mu) was used where the last GC base pair of S1 was eliminated by a G to U mutation at position 6. The reasoning for this mutation was to enhance the flexibility of the double stranded region of this ligand by allowing an unpaired base between S1 and S2.

In series [6] the target is T1, TGFβ1. The series can be described thus: cell_activity. The settings on record: tags: Genentech or R&D Systems; chain copies: 2. Here is the method:
MLEC-Pail/luc cells were plated at 3.2×10⁴ cells per well in a 96 well Falcon plate, in 100 μl of DME+10% fetal bovine serum overnight. Media was made from autoclaved water. The cells were washed three times ([…]) in serum free DME plus Solution A (1:1). Solution A is 30 mM Hepes pH 7.6, 10 mM glucose, 3.0 mM KCl, 131 mM NaCl, 1.0 mM disodium phosphate. Samples (100 μl) were added in DME containing 20 mM Hepes pH 7.5, and 0.1% BSA (Fluka, radioimmunoassay grade). All samples were in triplicate. After six hours at 37° C. in a 5% CO₂ incubator the media was removed and cells were washed three times (100 μl each) in cold PBS. Lysis buffer (75 μl) (Analytical Luminescence Laboratory) was added and the plates incubated on ice for 20 min. The plates were sealed and frozen at −80° C. until assayed. Samples (25 μl) were assayed for luciferase activity with the Enhanced Luciferase Assay Kit from Analytical Luminescence Laboratory (San Diego, Calif., USA) according to the manufacturer's instructions using the Berthold Microlumat LB96P luminometer.
Ligands tested for inhibition of TGFβ1 activity were tested at a minimum of five concentrations. The ligands were serially diluted in DME, 20 mM Hepes pH 7.5, 0.1% Fluka BSA in polypropylene tubes and an equal volume of media containing 12 pM TGFβ1 was added to each tube, vortexed and transferred to the cells without further incubation.

Where a chain is given by its changes, count along the chain named.

T1 sequence (P01137 279-390, one chain of several): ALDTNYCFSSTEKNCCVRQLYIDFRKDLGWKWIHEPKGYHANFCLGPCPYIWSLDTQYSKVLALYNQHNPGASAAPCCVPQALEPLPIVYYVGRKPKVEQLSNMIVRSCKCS

B1: lib6-23 (ssRNA)
RNA: GGGGGAGAACGCGGAUCCAAGCUUCGAGUAGACAGGAGGGAGGGGUGGAUGUGGAGUCUCGAGAAGCUUCGCUCUAGAUCUCCCUUUAGUGAGGGUUA
modifications: 2'-NH2 pyrimidines
A word on the Kd: it is the free concentration of one partner at which half of the binding sites on the other are occupied at equilibrium, for simple one-to-one binding. In the series with TGFβ1 [1], B1 came in with a Kd of 3.4 nM.

B2: lib1-20-3-82 (ssRNA)
RNA: GGGGGAGAACGCGGAUCCUGCUAGACCGAGGAUGCAAAGGGACAUGCAUUAGGGAAACCUAUGUAUAAGAACGCGGUCGCAG
modifications: 2'-F pyrimidines
B2 registered a Kd in the series with TGFβ1 [2] of 6.1 nM.

B3: 43N (ssRNA)
RNA: GGGAGGACGAUGCGGGAAGUGGAUAGAACAGUCAGAAAUGUAAGCGUGAGGUGCAGACGACUCGCCCGA
modifications: 2'-NH2 pyrimidines
Broadly, the IC50 is the concentration at which inhibition is half-maximal. Take B3: in the series with KGF (hKGF) [3], the IC50 came to 800 nM. This molecule also gave a Kd with KGF (hKGF) [4] of 0.79 nM.

B4: 6N (ssRNA)
RNA: GGGAGGACGAUGCGGGCAGGGAGCAAUGAACUCAAGUCAAGCCGGUGCACGUGGGCAGACGACUCGCCCGA
modifications: 2'-NH2 pyrimidines
With B4, the IC50 with KGF (hKGF) [3] was determined as 80 nM. The molecule also displayed a Kd in the series with KGF (hKGF) [4] of 0.71 nM.

B5: 37F (ssRNA)
RNA: GGGAGGACGAUGCGGGCCCGAUCUACUGCAUUACCGAAACGAUUUCCCCACUGUGCAGACGACUCGCCCGA
modifications: 2'-F pyrimidines
Turning to B5, the IC50 in the series with KGF (hKGF) [3] turned out to be 20 nM. Binding with KGF (hKGF) [4] was put at a Kd of 0.46 nM.

B6: lib6-30 (ssRNA)
RNA: GGGGGAGAACGCGGAUCCUGCUAGACCGAGGAUGCAAAGGGACAUGCAUUAGGGAAACCUAUUAUAAGAACGCGGUCGCAGAAGCUUCGCUCUAGAUCUCCCUUUAGUGAGGGUUA
modifications: 2'-F pyrimidines
B6: the affinity in the series with TGFβ1 [2], expressed as Kd, was 8.8 nM.

B7: T18 (ssRNA)
RNA: GGGAGGACGAUGCGGUGGUCUCCCAAUUCUAUCUCCAUCGUAUC
modifications: 2'-F pyrimidines
Regarding B7, the binding result with KGF (hKGF) [5] is recorded as “binds”.

B8: T21 (ssRNA)
RNA: B7 RNA with A31U
modifications: 2'-F pyrimidines
With B8, in the series with KGF (hKGF) [5], the binding result is “binds”.

B9: 2N (ssRNA)
RNA: GGGAGGACGAUGCGGGCGGGAAGGUCCGAAGACCGGCGAAAGGAACGAGAUUGCCCAGACGACUCGCCCGA
modifications: 2'-NH2 pyrimidines
As for B9, the IC50 with KGF (hKGF) [3] was found to be 200 nM. Besides, in the series with KGF (hKGF) [4] (dumbbell (predicted)), the Kd is 0.77 nM.

B10: 29N (ssRNA)
RNA: GGGAGGACGAUGCGGGAGGGGAGAAGAAUGCAGGAAACAGCGAAAUGCGUGUGGCCAGACGACUCGCCCGA
modifications: 2'-NH2 pyrimidines
B10 came in with an IC50 in the series with KGF (hKGF) [3] of 40 nM. In addition, the Kd in the series with KGF (hKGF) [4] worked out at 0.43 nM.

B11: lib9-10 (ssRNA)
RNA: GGGGGAGAACGCGGAUCCUGUCUCCACCGCCGAUACUGGGGUUCCUGGGGCCCCUCCAUGCAGGAGGGGUGGUUCGGAGAAAGCUUCGCUCUAGAUCUCCCUUUAGUGAGGGUUA
modifications: 2'-NH2 U, 2'-F C
B11: the Kd in the series with TGFβ1 [2] worked out at 1.1 nM.

B12: 42N (ssRNA)
RNA: GGGAGGACGAUGCGGGGAGACGUAGACGGGAACAUAGAACGAACAUCAACGCGGCCAGACGACUCGCCCGA
modifications: 2'-NH2 pyrimidines
In the series with KGF (hKGF) [3], B12 came in with an IC50 of 800 nM. For the same molecule, the Kd with KGF (hKGF) [4] was 0.78 nM.

B13: lib8-9* (ssRNA)
RNA: GGGGGAGAACGCGGAUCCGCAAUCCCAGGCGCAUAGCUUCCGAGUAGACAGGAGGGAGGGGUGGAUGUGGCGUCUACUCGGCGUCGUGAAGCUUCGCUCUAGAUCUCCCUUUAGUGAGGGUUA
modifications: 2'-NH2-U, 2'-F-C
Molecule B13 returned an IC50 in the series with TGFβ1 [6] of 124 nM.

B14: T4 (ssRNA)
RNA: GGGAGGACGAUGCGGUGGUCUCCCCUAAACUUUCUCCAUCGUAUC
modifications: 2'-F pyrimidines
As to B14, the binding result in the series with KGF (hKGF) [5] is reported as “binds”.

B15: lib1-20-5 (ssRNA)
RNA: GGGGGAGAACGCGGAUCCAAGAAUGUUCGGCCGCACGAGGUGACAGUGGUGCGGAUACGGACCGAUUGGGUUUGCCAAGCUUCGCUCUAGAUCUCCCUUUAGUGAGGGUUA
modifications: 2'-F pyrimidines
In the case of B15, the equilibrium dissociation constant (Kd) in the series with TGFβ1 [2] is 46 nM.

B16: T5 (ssRNA)
RNA: GGGAGGACGAUGCGGUGGUCUCCCAAUUCUAUUCUCCAUCGUAUC
modifications: 2'-F pyrimidines
Turning to B16, the binding result with KGF (hKGF) [5] is recorded as “binds”.

B17: lib5-48 (ssRNA)
RNA: GGGGGAGAACGCGGAUCCGGCAAUCCCAGGCGCAUAGCUUCCGAGUAGACAGGAGGGAGGGGUGGAUGUGGUGUACGAGGAAGCUUCGCUCUAGAUCUCCCUUUAGUGAGGGUUA
modifications: 2'-NH2 pyrimidines
B17 registered a Kd in the series with TGFβ1 [1] of 3.8 nM.

B18: 43F (ssRNA)
RNA: GGGAGGACGAUGCGGUGUAGUUUCCCUGUAUGCCAUUCUUUCCCAUGCCGCACGCCAGACGACUCGCCCGA
modifications: 2'-F pyrimidines
As to B18, the IC50 in the series with KGF (hKGF) [3] came to 80 nM. The same molecule displayed a Kd with KGF (hKGF) [4] of 1.13 nM.

B19: 10F (ssRNA)
RNA: GGGAGGACGAUGCGGGACCAGAUGGCGGAUUUUUCAGCAAUCCUCCCCCGCUGCCCAGACGACUCGCCCGA
modifications: 2'-F pyrimidines
Take B19: in the series with KGF (hKGF) [3], the IC50 was 30 nM. Also, the Kd in the series with KGF (hKGF) [4] stood at 0.47 nM.

B20: lib7-21 (ssRNA)
RNA: GGGGGAGAACGCGGAUCCGAGCAAUCCCGGGCGCAUAGCUUCCGAGGAGACAGGCGGGAGGGGUGGAUGUGGCGUCUCGAGAAGCUUCGCUCUAGAUCUCCCUUUAGUGAGGGUUA
modifications: 2'-F U, 2'-NH2 C
Regarding B20, the dissociation constant Kd in the series with TGFβ1 [1] amounted to 2.4 nM.

B21: lib7-43 (ssRNA)
RNA: B20 RNA with G29A, G47U
modifications: 2'-F U, 2'-NH2 C
B21 yielded a Kd with TGFβ1 [1] of 3.3 nM.

B22: lib2-6-4 (ssRNA)
RNA: B20 RNA with G29A, G47U, C55A, C73U
modifications: 2'-NH2 pyrimidines
For B22, binding with TGFβ1 [1] was put at a Kd of 3.1 nM.

B23: lib3-45 (ssRNA)
RNA: GGGGGAGAACGCGGAUCCGGAAGUCUGGUCUUUGGGGAGUCCGCAUGGCCCUGGCGAAAGCUUCGCUCUAGAUCUCCCUUUAGUGAGGGUUA
modifications: 2'-NH2 pyrimidines
B23 came in with a Kd with TGFβ1 [2] of 1.9 nM.

B24: 1N (ssRNA)
RNA: GGGAGGACGAUGCGGGAAGGGACGAUAAAGAGGAAUCGAACAACAAGUGGCUGGCCAGACGACUCGCCCGA
modifications: 2'-NH2 pyrimidines
B24 displayed an IC50 with KGF (hKGF) [3] of 50 nM. Moreover, the Kd with KGF (hKGF) [4] is 0.51 nM.

Source of the values: patent publication US20030180744, “High affinity oligonucleotide ligands to growth factors” (GILEAD SCIENCES, INC., published 2003).
